{
  "source": "paper PMC8113546",
  "proteins": {"B1": {"name": "B7H3: tunicamycin (TM) (protein)", "parent chain": "MLRRRGSPGMGVHVGAALGALWFCLTGALEVQVPEDPVVALVGTDATLCCSFSPEPGFSLAQLNLIWQLTDTKQLVHSFAEGQDQGSAYANRTALFPDLLAQGNASLRLQRVRVADEGSFTCFVSIRDFGSAAVSLQVAAPYSKPSMTLEPNKDLRPGDTVTITCSSYQGYPEAEVFWQDGQGVPLTGNVTTSQMANEQGLFDVHSILRVVLGANGTYSCLVRNPVLQQDAHSSVTITPQRSPTGAVEVQVPEDPVVALVGTDATLRCSFSPEPGFSLAQLNLIWQLTDTKQLVHSFTEGRDQGSAYANRTALFPDLLAQGNASLRLQRVRVADEGSFTCFVSIRDFGSAAVSLQVAAPYSKPSMTLEPNKDLRPGDTVTITCSSYRGYPEAEVFWQDGQGVPLTGNVTTSQMANEQGLFDVHSVLRVVLGANGTYSCLVRNPVLQQDAHGSVTITGQPMTFPPEALWVTVGLSVCLIALLVALAFVCWRKIKQSCEEENAGAEDQDGEGEGSKTALQPLKHSDSKEDDGQEIA"}, "B2": {"name": "B7H3: 2F-Fuc (protein)", "parent chain": "B1 parent chain"}, "B3": {"name": "B7H3: FUT8 knockout (protein)", "parent chain": "B1 parent chain"}, "B4": {"name": "B7H3: B7H3-8NQ (protein)", "parent chain": "B1 parent chain"}, "B5": {"name": "mouse B7H3: 2F-Fuc (protein)", "parent chain": "MLRGWGGPSVGVCVRTALGVLCLCLTGAVEVQVSEDPVVALVDTDATLRCSFSPEPGFSLAQLNLIWQLTDTKQLVHSFTEGRDQGSAYSNRTALFPDLLVQGNASLRLQRVRVTDEGSYTCFVSIQDFDSAAVSLQVAAPYSKPSMTLEPNKDLRPGNMVTITCSSYQGYPEAEVFWKDGQGVPLTGNVTTSQMANERGLFDVHSVLRVVLGANGTYSCLVRNPVLQQDAHGSVTITGQPLTFPPEALWVTVGLSVCLVVLLVALAFVCWRKIKQSCEEENAGAEDQDGDGEGSKTALRPLKPSENKEDDGQEIA"}, "B6": {"name": "mouse B7H3: B7H3-4NQ (protein)", "parent chain": "B5 parent chain"}},
  "key": {"[1]": {"experiment": "CHX chase, remaining B7H3 by immunoblot (half-life)", "details": "glycan lost"}, "[2]": {"experiment": "IP of B7H3-WT-Flag, ubiquitin immunoblot", "details": "glycan lost; control: untreated"}, "[3]": {"experiment": "flow cytometry of cell-surface B7H3", "details": "glycan lost"}, "[4]": {"experiment": "flow cytometry of cell-surface B7H3, MDA-MB-231", "details": "glycan changed form; control: untreated"}, "[5]": {"experiment": "immunoblot, MDA-MB-231 and HCC1806", "details": "glycan changed form; control: control sgRNA"}, "[6]": {"experiment": "flow cytometry of cell-surface B7H3, B7H3-WT cells", "details": "glycan changed form; control: control sgRNA"}, "[7]": {"experiment": "B7H3 IHC of 4T1 B7H3-WT tumours", "details": "glycan changed form; control: PBS"}, "[8]": {"experiment": "flow cytometry of cell-surface B7H3, 4T1-B7H3KO", "details": "glycan lost; control: B7H3-WT"}},
  "data": [
    {"protein": "B1", "values": [
      {"measurement": "degradation_or_half_life", "setting": "[1]; control: untreated", "value": "decreases"},
      {"measurement": "other: K48 ubiquitination", "setting": "[2]", "value": "increases"},
      {"measurement": "localisation_or_trafficking", "setting": "[3]; control: untreated", "value": "decreases"}
    ]},
    {"protein": "B2", "values": [
      {"measurement": "localisation_or_trafficking", "setting": "[4]", "value": "decreases"}
    ]},
    {"protein": "B3", "values": [
      {"measurement": "expression_or_secretion", "setting": "[5]", "value": "decreases"},
      {"measurement": "localisation_or_trafficking", "setting": "[6]", "value": "decreases"}
    ]},
    {"protein": "B4", "values": [
      {"measurement": "degradation_or_half_life", "setting": "[1]; control: B7H3-WT", "value": "decreases"},
      {"measurement": "localisation_or_trafficking", "setting": "[3]; control: B7H3-WT", "value": "abolishes"}
    ]},
    {"protein": "B5", "values": [
      {"measurement": "expression_or_secretion", "setting": "[7]", "value": "decreases"}
    ]},
    {"protein": "B6", "values": [
      {"measurement": "localisation_or_trafficking", "setting": "[8]", "value": "abolishes"}
    ]}
  ]
}
